# Biological target: HLA-A*02:01 (Homo sapiens, UniProt P04439, D140Y/D185E/D98H/E176V/E277Q/G131W/G231S/I119V/I121R/I166T/I218V/L300P/L318F/N151K/N90K/P208A/P217A/Q86G/Q94H/R138H/R169H/T345S)
# Experiment: MHC binding assay (UV-ligand exchange, anti-β2m ELISA, peptide exchange yield)
# Conditions: binding to HLA-A*02:01
# Excerpt: Candidate peptides for T cell based therapies according to the present invention were further tested for their MHC binding capacity (affinity). The individual peptide-MHC complexes were produced by UV-ligand exchange, where a UV-sensitive peptide is cleaved upon UV-irradiation, and exchanged with the peptide of interest as analyzed. Only peptide candidates that can effectively bind and stabilize the peptide-receptive MHC molecules prevent dissociation of the MHC complexes. To determine the yield of the exchange reaction, an ELISA was performed based on the detection of the light chain (β2m) of stabilized MHC complexes. The assay was performed as generally described in Rodenko et al. (Rodenko et al., 2006).
# 96 well MAXISorp plates (NUNC) were coated over night with 2 ug/ml streptavidin in PBS at room temperature, washed 4× and blocked for 1h at 37° C. in 2% BSA containing blocking buffer. […] Peptide-MHC monomers of the UV-exchange reaction were diluted 100 fold in blocking buffer. Samples were incubated for 1 h at 37° C., washed four times, incubated with 2 ug/ml HRP conjugated anti-β2m for 1h at 37° C., washed again and detected with TMB solution that is stopped with […]. Absorption was measured at 450 nm. Candidate peptides that show a high exchange yield (preferably higher than 50%, most preferred higher than 75%) are generally preferred for a generation and production of antibodies or fragments thereof, and/or T cell receptors or fragments thereof, as they show sufficient avidity to the MHC molecules and prevent dissociation of the MHC complexes.
row,Substance,"Peptide exchange (MHC class I binding score, peptide exchange yield)"
1,1 (SLMEPPAVLLL; listed as Homo sapiens) [compound 1],“+++” (>50 = +++)
2,4 (GIMEHITKI; listed as Homo sapiens) [compound 4],“++++” (>75% = ++++)
3,6 (VLVSDGVHSV; listed as Homo sapiens) [compound 6],“+++” (>50 = +++)
4,9 (GAAKDLPGV; listed as Homo sapiens) [compound 9],“++” (>20% = ++)
5,10 (FLATFPLAAV; listed as Homo sapiens) [compound 10],“++++” (>75% = ++++)
6,12 (SLWPDPMEV; listed as Homo sapiens) [compound 12],“+++” (>50 = +++)
7,13 (YLMDESLNL; listed as Homo sapiens) [compound 13],“+++” (>50 = +++)
8,14 (AAYGGLNEKSFV; listed as Homo sapiens) [compound 14],“+++” (>50 = +++)
9,15 (VLLTFKIFL; listed as Homo sapiens) [compound 15],“++” (>20% = ++)
10,16 (VLFQGQASL; listed as Homo sapiens) [compound 16],“+++” (>50 = +++)
11,18 (YLVAKLVEV; listed as Homo sapiens) [compound 18],“++” (>20% = ++)
12,20 (RMIEYFIDV; listed as Homo sapiens) [compound 20],“+++” (>50 = +++)
13,21 (VLDELDMEL; listed as Homo sapiens) [compound 21],“++” (>20% = ++)
14,22 (IMEENPGIFAV; listed as Homo sapiens) [compound 22],“+++” (>50 = +++)
15,23 (VLLDDIFAQL; listed as Homo sapiens) [compound 23],“+++” (>50 = +++)
16,24 (SLSDGLEEV; listed as Homo sapiens) [compound 24],“++” (>20% = ++)
17,25 (FLPDEPYIKV; listed as Homo sapiens) [compound 25],“+++” (>50 = +++)
18,26 (ALLELAEEL; listed as Homo sapiens) [compound 26],“+++” (>50 = +++)
19,27 (ILADIVISA; listed as Homo sapiens) [compound 27],“+++” (>50 = +++)
20,28 (QLLDETSAITL; listed as Homo sapiens) [compound 28],“+++” (>50 = +++)
21,29 (KMLGIPISNILMV; listed as Homo sapiens) [compound 29],“+++” (>50 = +++)

row,Substance,"Peptide exchange (MHC class I binding score, peptide exchange yield)"
1,30 (LILDWVPYI; listed as Homo sapiens) [compound 30],“+++” (>50 = +++)
2,31 (YLAPELFVNV; listed as Homo sapiens) [compound 31],“++” (>20% = ++)
3,32 (KLDDLTQDLTV; listed as Homo sapiens) [compound 32],“++” (>20% = ++)
4,33 (VLLSLLEKV; listed as Homo sapiens) [compound 33],“++” (>20% = ++)
5,34 (ILVEADSLWVV; listed as Homo sapiens) [compound 34],“+++” (>50 = +++)
6,35 (KINDTIYEV; listed as Homo sapiens) [compound 35],“+++” (>50 = +++)
7,39 (SVAPNLPAV; listed as Homo sapiens) [compound 39],“+++” (>50 = +++)
8,41 (SLMPHIPGL; listed as Homo sapiens) [compound 41],“+++” (>50 = +++)
9,42 (VLLQKIVSA; listed as Homo sapiens) [compound 42],“+++” (>50 = +++)
10,43 (VLSSLEINI; listed as Homo sapiens) [compound 43],“++” (>20% = ++)
11,44 (ILDPISSGFLL; listed as Homo sapiens) [compound 44],“++” (>20% = ++)
12,45 (SLWQDIPDV; listed as Homo sapiens) [compound 45],“+++” (>50 = +++)
13,46 (ILTEENIHL; listed as Homo sapiens) [compound 46],“+++” (>50 = +++)
14,47 (ILLSVPLLVV; listed as Homo sapiens) [compound 47],“++” (>20% = ++)
15,50 (SLSELEALM; listed as Homo sapiens) [compound 50],“+++” (>50 = +++)
16,51 (LLPDLEFYV; listed as Homo sapiens) [compound 51],“++++” (>75% = ++++)
17,52 (FLLAHGLGFLL; listed as Homo sapiens) [compound 52],“++++” (>75% = ++++)
18,53 (KMIETDILQKV; listed as Homo sapiens) [compound 53],“++++” (>75% = ++++)
19,54 (SLLEQGKEPWMV; listed as Homo sapiens) [compound 54],“+++” (>50 = +++)
20,55 (SLLDLETLSL; listed as Homo sapiens) [compound 55],“++++” (>75% = ++++)
21,57 (TLAELQPPVQL; listed as Homo sapiens) [compound 57],“+++” (>50 = +++)

row,Substance,"Peptide exchange (MHC class I binding score, peptide exchange yield)"
1,59 (IMEDIILTL; listed as Homo sapiens) [compound 59],“+++” (>50 = +++)
2,62 (VLLDVSAGQLLM; listed as Homo sapiens) [compound 62],“++++” (>75% = ++++)
3,63 (YLLPSGGSVTL; listed as Homo sapiens) [compound 63],“++” (>20% = ++)
4,64 (YAAPGGLIGV; listed as Homo sapiens) [compound 64],“++” (>20% = ++)
5,66 (FLDENIGGVAV; listed as Homo sapiens) [compound 66],“+++” (>50 = +++)
6,67 (TLLAEALVTV; listed as Homo sapiens) [compound 67],“+++” (>50 = +++)
7,68 (SLMELPRGLFL; listed as Homo sapiens) [compound 68],“++++” (>75% = ++++)
8,69 (FQLDPSSGVLVTV; listed as Homo sapiens) [compound 69],“+++” (>50 = +++)
9,70 (GLLDYPVGV; listed as Homo sapiens) [compound 70],“+++” (>50 = +++)
10,71 (GILARIASV; listed as Homo sapiens) [compound 71],“+++” (>50 = +++)
11,72 (SLLELDGINL; listed as Homo sapiens) [compound 72],“+++” (>50 = +++)
12,73 (NIFDLQIYV; listed as Homo sapiens) [compound 73],“+++” (>50 = +++)
13,74 (ALLDPEVLSIFV; listed as Homo sapiens) [compound 74],“+++” (>50 = +++)
14,75 (GLLEVMVNL; listed as Homo sapiens) [compound 75],“+++” (>50 = +++)
15,76 (ILIDSIYKV; listed as Homo sapiens) [compound 76],“+++” (>50 = +++)
16,77 (ILVEADGAWVV; listed as Homo sapiens) [compound 77],“++++” (>75% = ++++)
17,78 (SLFSSLEPQIQPV; listed as Homo sapiens) [compound 78],“+++” (>50 = +++)
18,80 (FLYDNLVESL; listed as Homo sapiens) [compound 80],“++” (>20% = ++)
19,81 (FLFSQLQYL; listed as Homo sapiens) [compound 81],“++” (>20% = ++)
20,82 (FLSSVTYNL; listed as Homo sapiens) [compound 82],“+++” (>50 = +++)
21,83 (ILAPTVMMI; listed as Homo sapiens) [compound 83],“+++” (>50 = +++)
